Data taken from publication PMC4486081 (Oncogene, 2015).

Target: Recombinant full length FAK (focal adhesion kinase), GST-tagged, phospho-Y397 (UniProt Q05397 1-1052, phosphotyrosine at 397)
Experiment: co-IP

Recombinant full length FAK (focal adhesion kinase), GST-tagged, phospho-Y397, sequence (Q05397 whole entry): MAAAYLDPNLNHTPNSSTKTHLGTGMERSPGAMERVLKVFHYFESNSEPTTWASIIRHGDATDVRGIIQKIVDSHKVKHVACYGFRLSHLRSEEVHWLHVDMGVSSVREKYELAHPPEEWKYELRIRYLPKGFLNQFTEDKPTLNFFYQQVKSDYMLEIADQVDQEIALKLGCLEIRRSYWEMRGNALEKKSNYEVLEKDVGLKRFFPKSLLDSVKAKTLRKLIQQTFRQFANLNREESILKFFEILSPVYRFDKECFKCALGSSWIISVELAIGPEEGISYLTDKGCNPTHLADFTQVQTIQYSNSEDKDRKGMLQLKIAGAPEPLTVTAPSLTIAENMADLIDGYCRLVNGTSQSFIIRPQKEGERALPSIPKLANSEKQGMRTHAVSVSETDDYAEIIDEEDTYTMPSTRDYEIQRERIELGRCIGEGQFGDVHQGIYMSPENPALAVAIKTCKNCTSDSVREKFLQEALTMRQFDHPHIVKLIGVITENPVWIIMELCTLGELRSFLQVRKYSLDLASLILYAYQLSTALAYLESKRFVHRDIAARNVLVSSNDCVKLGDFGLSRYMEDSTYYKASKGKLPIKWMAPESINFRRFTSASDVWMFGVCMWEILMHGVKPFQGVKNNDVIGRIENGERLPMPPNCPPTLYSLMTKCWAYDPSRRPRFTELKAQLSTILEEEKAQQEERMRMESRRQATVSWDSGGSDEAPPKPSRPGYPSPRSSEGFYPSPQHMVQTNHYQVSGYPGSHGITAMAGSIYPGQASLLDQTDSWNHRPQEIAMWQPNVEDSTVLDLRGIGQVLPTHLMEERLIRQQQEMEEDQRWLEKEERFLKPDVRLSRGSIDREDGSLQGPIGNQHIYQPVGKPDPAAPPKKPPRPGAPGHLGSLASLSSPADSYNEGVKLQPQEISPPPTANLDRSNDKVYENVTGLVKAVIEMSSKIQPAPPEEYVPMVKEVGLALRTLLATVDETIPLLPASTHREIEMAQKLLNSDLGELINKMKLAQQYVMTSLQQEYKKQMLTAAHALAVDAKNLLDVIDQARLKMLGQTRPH

B1: Recombinant active PKM2 (pyruvate kinase M2), 1-531 aa with N-terminal His-tag (enzyme)
chain: not shown
B1: binds.
